From the nanobody polyreactivity screen of Harvey et al. (2022) come the findings set out here.

A short description of the series: yeast display, Sf9 membrane polyspecificity reagent, FACS + sequencing; frameworks hold sequencing errors. Put shortly:
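Genes from sorted yeast were amplified by colony PCR, read by MiSeq 2 × 250 sequencing and filtered on CDR length. These cells carried a synthetic nanobody library in Saccharomyces cerevisiae BJ5465 and were sorted by FACS into low and high (top ~1%) gates on anti-HA and streptavidin fluorescence. Polyreactivity is labelled according to the gate of origin.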
On to “QVQLVESGGGLVQAGGSLRLSCAASGLTFSYYAMGWYRPAPGKERELVAAITSSGGNTYYADSVKGRFTISRDNEKNTVYLQMNSLKPEETAVYYCNARRYLRGYGYGYWGQGTQVTVSS”, for which the “polyreactivity (PSR sort gate)” value is “high polyreactivity”. Take “QVQLVESGGGLVQAGGSLRLSCAASGLTFSYYAMGWYRQAPGKERELVAVISYSGSSTYYADSVKGRFTISRDNAKNTVYLQMNSLKPEDTAVYYCAAYLYPRGKGAYDFYYWGQGTQVTVSA”: the “polyreactivity (PSR sort gate)” value is given as “high polyreactivity”.

On to “QVQLVESGGGLVQAGGSLRLSCAASGLTFTDYAMGWNRQAPGKERELVAGIWDGGSTYYADSVNGRFTISRDNPKNTVYLLMNSLKPEDTAVYYCAARYAGGFYYWGQGTQVTVSS”, for which the “polyreactivity (PSR sort gate)” value is “high polyreactivity”.

Take “QVQLVESGGGLVQAGGSLRLSCAASGLTFTGYAMGWYRQAPGKERELVASISSRGGSTYYADSVKGRFTISRDNAKITVYLQMNSLKPEDTAVYYCNAVYRGYYSGELDYWGQGTQVTVSS”: the “polyreactivity (PSR sort gate)” value is on record as “high polyreactivity”. Consider “QVQLVESGGGLVQAGGSLRLSCAASGLTFTHYAMGWYRQAPGKEMELVAAISSGGRTYYADSVKGRFTISRDNAKNTVYLQMNSLKPEDTGVYYCAAVTTVYTKYGYWGQGTQVTVSS”, for which the “polyreactivity (PSR sort gate)” value was “high polyreactivity”.

“QVQLVESGGGLVQAGGSLRLSCAASGLTFTSYPMVWYRQAPGKERELVAAIDWSGGRTYYADSVKGRFTISRDNAKNTVYLQMNSLKPEDTAVYYCAAYSRNRALRFNYWGQGTQVTVSS”: the “polyreactivity (PSR sort gate)” value was “high polyreactivity”. With “QVQLVESGGGLVQAGGSLRLSCAASGLTFTTYAMGWYRQAPWKERELVAAISRSGGRTYYADSVKGRFTISRDNAKNTVYLHMNSLKPEDTAVYYCNVKGHVLEYYWGQGTQVTVSS”, the “polyreactivity (PSR sort gate)” value was “high polyreactivity”. For “QVQLVESGGGLVQAGGSLRLSCAASGLTFTYYAMGWYRQSPGKASEFVAAISSSGSDTYYADSVKGRFTISRDNAKNTVYLQMTSQKPEDTAVYYCAAVLTGLSPDFEYEYWGQGTQVTVSS”, the “polyreactivity (PSR sort gate)” value is recorded as “low polyreactivity”.

Consider “QVQLVESGGGLVQAGGSLRLSCAASGLTFVAYAMGWYRQAPGKERELVAAITRRGGSTYYADSVTGRFTISRDNAKNTVYLQMNSLKPEDTAVYYCAAEGSYSRNPGFDYWGQGTQVTVSS”, for which the “polyreactivity (PSR sort gate)” value is given as “high polyreactivity”. The value for “QVQLVESGGGLVQAGGSLRLSCAASGLTFVDNALGWYRQAPGKDRELVAAISYNGGTTYYADSVKGRFTISRDNAKNTVYLQIISLKPEDTAVFYCAADISVGRYGDMDYWGQGTQVTVSS” was “low polyreactivity”; that for “QVQLVESGGGLVQAGGSLRLSCAASGLTFVKNVMGWYRQAPGKERELVAAISRRGGSTYYADSVKGRFTISRDNAKNTVYLQMNSLKPEDTAVYSCNAVLNHLSYIYPAVGYWGQGTQVTVSS” was “high polyreactivity”.

As for “QVQLVESGGGLVQAGGSLRLSCAASGLTFVQYAMGWYRQAPGKERELVATISKSGGFTYYADSVKGRFTISRDNATNTVYLQMNSLKPEDTAVYYCAAAWYYSSRGFHASWGHDYWGQGTQVTVSS”, the “polyreactivity (PSR sort gate)” value is on record as “low polyreactivity”. Consider “QVQLVESGGGLVQAGGSLRLSCAASGLTFVRYAMGWYRQAPGKERELVAVISYSGARTYYADSVKGRFTISRDNAKNTVYLQMNSLKPEDTAVYYCAARQYTTGKYDSWGQGTQVTVSS”, for which the “polyreactivity (PSR sort gate)” value is reported as “high polyreactivity”.

For the sequence “QVQLVESGGGLVQAGGSLRLSCAASGLTFVYYAMGWYRQAPGKERELVAVISSSGGSTYYADSVKGRFTISRDNAKNTVYLQMNSLKPEDTAVYYCAAPRQVYYQTDNDYWGQGTQVTVSS”, the “polyreactivity (PSR sort gate)” value is on record as “high polyreactivity”.

Take “QVQLVESGGGLVQAGGSLRLSCAASGLTFVYYTRGWYRQAPGKERELVATITFTGGNTYYADSVKGRFTISRDNAKNTVYLQMNCLKPEDTAVYYCAKDSGPYKAEYDYGGQGTQVTVSS”: the “polyreactivity (PSR sort gate)” value is “low polyreactivity”. Consider “QVQLVESGGGLVQAGGSLRLSCAASGLTFWEYAMGWYRQAPGKERELVAAITWGGNTYYADSVKGRFTISRDNAKNTVYLQMNSLKPEDTAVYYCAARGYYLTGGFRRYYYWGQGTQVTVSS”, for which the “polyreactivity (PSR sort gate)” value is listed as “high polyreactivity”. Turning to “QVQLVESGGGLVQAGGSLRLSCAASGLTFWPYVMGWYRQAPGKERELVAAIDDTGITYYADSVKGRFTISRDNEKNTVYLQMNTLKPEDTAVYYCATDWDYYFPWIYPSDAGPEDGYCGQGTQVTVSS”, the “polyreactivity (PSR sort gate)” value is on record as “low polyreactivity”. The value for “QVQLVESGGGLVQAGGSLRLSCAASGLTFWRYTMGWYRPAPGKERELVAVITYRGGSTYYADSVKGRFTISRDYAKNTVYLQMNSLKPEDTAVYYCAAGLSTYGLTYDYWGQGTQVTVSS” was “high polyreactivity”; that for “QVQLVESGGGLVQAGGSLRLSCAASGLTFWRYVMGWYRQAPGKERELVATISIGGSTNYADSVKGRVTISRDNAKNTVYLQMNSLKPEDTAVYYCAAKFRGDVFPYYYWGQGTQVTVSS” was “high polyreactivity”.

As for “QVQLVESGGGLVQAGGSLRLSCAASGLTFWVYTMGWYRQAPGKERELVAAITRGGSTTYADSVKGRFTISRDNAKNSVYLQMNSLQPEDTAVYYCNAVYKYSVVYKLDYWGQGTQVTVSS”, the “polyreactivity (PSR sort gate)” value is listed as “high polyreactivity”. As for “QVQLVESGGGLVQAGGSLRLSCAASGLTFWYYAMGRYRHAPRKERELVATITWSGRTYYADSVKGRFTISRDNAKNTVYLQMNSLKTEDTAVYYCNAVKGRLQYSYDYWGQGTQVTVSS”, the “polyreactivity (PSR sort gate)” value is “high polyreactivity”.

In the case of “QVQLVESGGGLVQAGGSLRLSCAASGLTFWYYAMGWYRQAPGKERELVAAITSVGSTYYADSVKGRFTISRDNAKNTVYLQMNSLKPEDTAVYYCAAGVPPLYFRRGGDYWGQGTQGTVSS”, the “polyreactivity (PSR sort gate)” value was “high polyreactivity”.

“QVQLVESGGGLVQAGGSLRLSCAASGLTFYANAMGWYRQAPGKERELVAAITSSGGSTYYADSVKGRFTISRDNAKNTVYLQMNSLKPDDTAVYYCNAYFRPRYGYWGQGTQVTVSS”: the “polyreactivity (PSR sort gate)” value was “high polyreactivity”. The value for “QVQLVESGGGLVQAGGSLRLSCAASGLTFYDYAKGWYRQAPGKELELVADIDFNGGSTSYADSVKGRFTISRDNAKNTVYLQMNSLKPEDTAVYYCAVDFIYWFHSRSSYIYDYWGQGSQVTVSS” was “low polyreactivity”; that for “QVQLVESGGGLVQAGGSLRLSCAASGLTFYEYAMGWYRQAPGKERELVAAISWRGDSTHYADSVKGRFTISRDNAKNTVYLQMNSLKPEDTAVYYCNTRRLHGWLYGYEYWGQGTQVTVSS” was “low polyreactivity”; that for “QVQLVESGGGLVQAGGSLRLSCAASGLTFYFNAMVWYRQAPVKERQLVAAIDWGGGSTYYADSVKGRFTISRDNAKNTVYLQMNSLNPEDTAVYYCGARGYYYNYDVNYWVQGTQVTVSS” was “low polyreactivity”.

For the sequence “QVQLVESGGGLVQAGGSLRLSCAASGLTFYGYGMGWYRQAPGKERELVASITSGGNTYYADSVKGRFTISRDNAKNTVYLQMNSLKPEDTAVYYCNADDGGPGVVLPTKEYDYWGQGTQVTVSS”, the “polyreactivity (PSR sort gate)” value is recorded as “low polyreactivity”. Take “QVQLVESGGGLVQAGGSLRLSCAASGLTFYKYAMGWYRQAPGKERELVAAITSTGGSTYYADSVKGRFTISRDNAKNTVYLQMNSLKPEDTAVYYCAAQWYTALYYWGQGTQVTVSS”: the “polyreactivity (PSR sort gate)” value is recorded as “high polyreactivity”. As to “QVQLVESGGGLVQAGGSLRLSCAASGLTFYLYAMGWYRPAPGKERELVAGISYRGASTYYADSVKGRFTISRDNAKNTVYLQMNSLKPEDTAVYYCAADDTTPNGVYWGQGTQVTVSS”, the “polyreactivity (PSR sort gate)” value is recorded as “low polyreactivity”.

On to “QVQLVESGGGLVQAGGSLRLSCAASGLTFYLYVMGWYRQAPGKERELVAAISRRGGTTYYADSVKGRFTISRDNAKNTVYLQMNSLKPEDTAVYYCAADFFAGTQRTFDYWGQGTQVTVSS”, for which the “polyreactivity (PSR sort gate)” value is recorded as “high polyreactivity”.

Regarding “QVQLVESGGGLVQAGGSLRLSCAASGLTFYLYVMGWYRQAPWKERELVAAISRRGGSTYYADSVKGRFTISRDNAKNTVYLQMNSLKPEDTAVYYCAARVYGTYRGIQYGYWGQGTQVTVSS”, the “polyreactivity (PSR sort gate)” value is given as “high polyreactivity”. Turning to “QVQLVESGGGLVQAGGSLRLSCAASGLTFYNARGWYRQAPGKERELVAAISGTVSRTYYADSVKGRFTISRDNAKNTVYLEMNSLKPEDTAVYYCAVRWYGKYSGVRYYYWGQGTQVNVSS”, the “polyreactivity (PSR sort gate)” value was “high polyreactivity”. The value for “QVQLVESGGGLVQAGGSLRLSCAASGLTFYQNAMGWYRQAPGKERELVAAISSSGGRTYYADSVKGRFTISRDNAKNTVYLQMNSLKPEDTAVYYCAAYRRYRNWFNYWGQGTQVTVSS” was “high polyreactivity”; that for “QVQLVESGGGLVQAGGSLRLSCAASGLTFYSYAMGWYRQAPGKERELVAAISSSGGNTYYADSVKGRFTISRDNAKNTVYLQMNSLKPEDTAVYYCNVYHWSRVFAIDYYWGQATQVTVSS” was “high polyreactivity”. The value for “QVQLVESGGGLVQAGGSLRLSCAASGLTFYTYAMGWYRQAPGKERELVAAISGGGRTHYADSVKGRFTISRDNAKNTVYLQMNSLKPEDTAVYYCAKDKGFLVRYDDLHDYDYWGQGTQVTVSS” was “low polyreactivity”; that for “QVQLVESGGGLVQAGGSLRLSCAASGLTFYTYAMGWYRQAPGKERELVAAISGRGSRTFYADSVKGRFTISRDNAKNTVYLQMNSLKPEDTAVYYCAARVWSSFTGAYDYWGQGTQVTVSS” was “high polyreactivity”. Under “QVQLVESGGGLVQAGGSLRLSCAASGLTFYVYAMGWYRQAPGKEREFVAAITRSGGSTHFADSVKGGFTISRDNAKYTVYLQMNSLKPEDTAVYYGAARAIRYYIRYYYWGQGTQVTVSS” stands “high polyreactivity”.

Consider “QVQLVESGGGLVQAGGSLRLSCAASGLTFYYNTMGWYRQAPGKERELVAAINWSGGRTYYADSVKGRFTISRDNAKNTVYLQMNSLKPEDTAVYYCNAASSRALGYAYDYWGQGTQVTVSS”, for which the “polyreactivity (PSR sort gate)” value is “high polyreactivity”. The value for “QVQLVESGGGLVQAGGSLRLSCAASGLTFYYYAMGWYRQAPGKEREFVAAISRSGGTTYYADSVKGRFTISRDNAKNTVYLQMISLKPEDTAVYYCNAQWWRYWPSQVIFDYWGQGTQVTVSS” was “high polyreactivity”. In the case of “QVQLVESGGGLVQAGGSLRLSCAASGLTFYYYAMGWYRQAPGKERELVAAITSGGITYYADSVKGRFTISRDNEKNTVYLQMNSLKPEDTAVYYCAARYHIDTLFYGSRYDYWGQGTQVTVSS”, the “polyreactivity (PSR sort gate)” value is “high polyreactivity”.
